Patent publication US20240279281A1, “Peptide Inhibitors of Interleukin-23 Receptor” (Janssen Pharmaceutica NV, priority 2023, published 2024)
Starred links: 1 amine or outer side, 2 acyl side, 3 side chain; linkers in the order of their positions; H or OH if unused. Positions of bridges follow the written chain, without caps; N, C: chain ends. Non-standard residues stand in square brackets, D forms with d. No end group written: not given here. *: point of attachment. X1 = 3‑(7-(3-acetamidophenyl)-1H-indol-3-yl)‑2‑aminopropanoic acid, CC(=O)Nc1cccc(-c2cccc3c(CC(N[*:1])C(=O)[*:2])c[nH]c23)c1; X3 = 4‑(2-(4-(2-amino-2-carboxyethyl)phenoxy)ethyl)‑4‑methylmorpholin‑4‑ium, C[N+]1(CCOc2ccc(CC(N[*:1])C(=O)[*:2])cc2)CCOCC1; X10 = 2‑amino‑3‑(4-(2-guanidinoethoxy)phenyl)propanoic acid, N=C(N)NCCOc1ccc(CC(N[*:1])C(=O)[*:2])cc1; X11 = 2‑amino‑3‑(2-hydroxyquinolin-6-yl)propanoic acid, O=C(C(Cc1ccc2nc(O[*:3])ccc2c1)N[*:1])[*:2]; X7 = 2‑amino‑3‑(5-methylpyridin-3-yl)propanoic acid, Cc1cncc(CC(N[*:1])C(=O)[*:2])c1; Trp(7-(3-AcNH-Ph)) = CC(=O)Nc1cccc(-c2cccc3c(C[C@H](N)C(=O)O)c[nH]c23)c1; 2Nal(6-OH) = N[C@@H](Cc1ccc2cc(O)ccc2c1)C(=O)O; Trp(7-Me) = Cc1cccc2c(C[C@H](N)C(=O)O)c[nH]c12; dLys(Me3) = C[N+](C)(C)CCCC[C@@H](N)C(=O)O; AEF = NCCOc1ccc(C[C@H](N)C(=O)O)cc1; 3Pal = N[C@@H](Cc1cccnc1)C(=O)O; Pen = CC(C)(S)[C@H](N)C(=O)O; αMeC = C[C@](N)(CS)C(=O)O; Thp = NC1(C(=O)O)CCOCC1; Abu = CC[C@H](N)C(=O)O; Propionyl = CCC(=O)*; Sar = CNCC(=O)O

T1: interleukin-23 receptor (IL-23R), Q5VWK5
T1 chain: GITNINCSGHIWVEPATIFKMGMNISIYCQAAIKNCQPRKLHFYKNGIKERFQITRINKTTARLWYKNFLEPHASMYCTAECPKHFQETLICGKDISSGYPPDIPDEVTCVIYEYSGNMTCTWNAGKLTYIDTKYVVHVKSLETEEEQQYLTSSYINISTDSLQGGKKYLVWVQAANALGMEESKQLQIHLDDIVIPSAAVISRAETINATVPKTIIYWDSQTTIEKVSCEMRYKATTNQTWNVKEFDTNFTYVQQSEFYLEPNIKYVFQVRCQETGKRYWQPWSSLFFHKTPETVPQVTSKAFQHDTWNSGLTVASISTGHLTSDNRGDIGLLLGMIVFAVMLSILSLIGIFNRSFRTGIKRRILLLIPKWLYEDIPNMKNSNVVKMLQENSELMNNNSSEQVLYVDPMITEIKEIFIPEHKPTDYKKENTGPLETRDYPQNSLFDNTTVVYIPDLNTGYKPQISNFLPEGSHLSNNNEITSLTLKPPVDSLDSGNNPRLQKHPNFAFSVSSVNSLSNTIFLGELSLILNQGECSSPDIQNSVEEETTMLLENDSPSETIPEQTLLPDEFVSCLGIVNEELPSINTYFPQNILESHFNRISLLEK


Biological target: T1, interleukin-23 receptor (IL-23R), Q5VWK5
Test: cell-based or functional assay

IL23R Reporter Assay IC50 | PBMC pSTAT3 IC50 | Binder
< 10 nM | < 0.1 nM | R[Pen]NT[Trp(7-Me)]K(Ac)[Pen][2‑amino‑3‑(4-(2-aminoethoxy)phenyl)propanoic acid][2‑amino‑3‑(6-hydroxynaphthalen-2-yl)propanoic acid][Thp]EN[3Pal][Sar]K (disulfide 2-7 (inferred); not fully specified (residue 15); ends not checked; also: K15: lipidated lysine, lipid not given here) [SEQ ID NO: 92]
< 10 nM | < 1 nM | R[Pen]NT[Trp(7-Me)]K(Ac)[Pen][AEF][2Nal(6-OH)][Thp]EN[3Pal][Sar] (disulfide 2-7 (inferred); ends not checked) [SEQ ID NO: 94]
< 10 nM | < 10 pM | R[Pen]ET[Trp(7-Me)]K(Ac)[Pen][AEF][2Nal(6-OH)][Thp]EN[3Pal][Sar] (disulfide 2-7 (inferred); ends not checked) [SEQ ID NO: 137]
< 10 nM | < 0.1 nM | [Pen]NT[Trp(7-Me)]K(Ac)[Pen][2‑amino‑3‑(4-(2-aminoethoxy)phenyl)propanoic acid][X11][Thp]EN[3Pal][Sar] (disulfide 1-6 (inferred); ends not checked) [SEQ ID NO: 149]
< 10 nM | < 0.1 nM | K[Pen]NT[Trp(7-Me)]K(Ac)[Pen][2‑amino‑3‑(4-(2-aminoethoxy)phenyl)propanoic acid][2‑amino‑3‑(6-hydroxynaphthalen-2-yl)propanoic acid][Thp]EN[3Pal][Sar] (disulfide 2-7 (inferred); not fully specified (residue 1); ends not checked; also: K1: lipidated lysine, lipid not given here) [SEQ ID NO: 90]
< 10 nM | < 10 pM | R[Pen]ET[Trp(7-Me)]K(Ac)[Pen][AEF][2Nal(6-OH)][Thp]EN[3Pal][Sar] (disulfide 2-7 (inferred); ends not checked) [SEQ ID NO: 136]
> 100 nM | < 1 nM | R[Pen]NT[X1]K[Pen][2‑amino‑3‑(4-(2-aminoethoxy)phenyl)propanoic acid][2‑amino‑3‑(6-hydroxynaphthalen-2-yl)propanoic acid][Thp]EN[3Pal][Sar] (disulfide 2-7 (inferred); ends not checked; also: K6: lipidated lysine, lipid not given here) [SEQ ID NO: 154]
< 10 nM | < 10 pM | [Abu]NTWQC[AEF][2Nal(6-OH)][Thp]EN[3Pal][Sar] (ends and bridges not checked) [SEQ ID NO: 98]
> 100 nM | < 1 nM | [Pen]NT[Trp(7-Me)]K[Pen][AEF][2Nal(6-OH)][Thp]K(Ac)N[3Pal][Sar] (disulfide 1-6 (inferred); ends not checked; also: K5: lipidated lysine, lipid not given here) [SEQ ID NO: 130]
< 10 nM | < 0.1 nM | R[Pen]NT[X1]K(Ac)[Pen][5‑(4-(2-amino-2-carboxyethyl)phenoxy)‑N,N,N‑trimethylpentan‑1‑aminium][2‑amino‑3‑(6-hydroxynaphthalen-2-yl)propanoic acid][Thp]EN[X7][Sar] (ends and bridges not checked) [SEQ ID NO: 20]
< 10 nM |  | [dK](Me3)[Abu]NTWK(Ac)[αMeC][X10][2Nal(6-OH)][Thp]EN[3Pal][Sar] (ends and bridges not checked) [SEQ ID NO: 1]
< 10 nM | < 10 pM | [Pen]NT[Trp(7-(3-AcNH-Ph))]K(Ac)[Pen][X3][2Nal(6-OH)][Thp]EN[3Pal][Sar] (disulfide 1-6 (inferred); ends not checked) [SEQ ID NO: 100]
< 10 nM | < 0.1 nM | K[Pen]NT[Trp(7-Me)]K(Ac)[Pen][2‑amino‑3‑(4-(2-aminoethoxy)phenyl)propanoic acid][2‑amino‑3‑(6-hydroxynaphthalen-2-yl)propanoic acid][Thp]EN[3Pal][Sar] (disulfide 2-7 (inferred); not fully specified (residue 1); ends not checked; also: K1: lipidated lysine, lipid not given here) [SEQ ID NO: 91]
< 10 nM | < 10 pM | [Pen]NT[X1]K(Ac)[Pen][X10][2‑amino‑3‑(6-hydroxynaphthalen-2-yl)propanoic acid][Thp]EN[X7][Sar] (ends and bridges not checked) [SEQ ID NO: 16]
< 10 nM | < 10 pM | R[Pen]ET[X1]K(Ac)[Pen][2‑amino‑3‑(4-(2-aminoethoxy)phenyl)propanoic acid][2‑amino‑3‑(6-hydroxynaphthalen-2-yl)propanoic acid][Thp]EN[3Pal][Sar] (disulfide 2-7 (inferred); ends not checked) [SEQ ID NO: 157]
< 10 nM |  | RCNT[X1]K(Ac)[αMeC][2‑amino‑3‑(4-(2-aminoethoxy)phenyl)propanoic acid][2‑amino‑3‑(6-hydroxynaphthalen-2-yl)propanoic acid][Thp]EN[3Pal][Sar] (ends and bridges not checked) [SEQ ID NO: 2]
> 100 nM | < 1 nM | R[Pen]NT[Trp(7-Me)]K[Pen][AEF][2Nal(6-OH)][Thp]EN[3Pal][Sar] (disulfide 2-7 (inferred); ends not checked; also: K6: lipidated lysine, lipid not given here) [SEQ ID NO: 120]
< 10 nM | < 10 pM | [dK](Propionyl)[Abu]NTWQC[AEF][2Nal(6-OH)][Thp]CN[3Pal][Sar] (ends and bridges not checked) [SEQ ID NO: 10]
< 10 nM | < 10 pM | [Pen]NT[X1]K(Ac)[Pen][AEF][2Nal(6-OH)][Thp]EN[3Pal][Sar] (disulfide 1-6 (inferred); ends not checked) [SEQ ID NO: 132]
< 10 nM | < 10 pM | [dLys(Me3)][Pen]NT[X1]K(Ac)[Pen][5‑(4-(2-amino-2-carboxyethyl)phenoxy)‑N,N,N‑trimethylpentan‑1‑aminium][2‑amino‑3‑(6-hydroxynaphthalen-2-yl)propanoic acid][Thp]EN[X7][Sar] (ends and bridges not checked) [SEQ ID NO: 17]
< 10 nM | < 0.1 nM | [Pen]NT[Trp(7-Me)]K(Ac)[Pen][AEF][2Nal(6-OH)][Thp]KN[3Pal][Sar] (disulfide 1-6 (inferred); not fully specified (residue 10); ends not checked; also: K10: lipidated lysine, lipid not given here) [SEQ ID NO: 95]
< 10 nM | < 0.1 nM | R[Pen]KT[Trp(7-Me)]K(Ac)[Pen][2‑amino‑3‑(4-(2-aminoethoxy)phenyl)propanoic acid][2‑amino‑3‑(6-hydroxynaphthalen-2-yl)propanoic acid][Thp]EN[3Pal][Sar] (not fully specified (bridges); ends and bridges not checked; also: K3: lipidated lysine, lipid not given here) [SEQ ID NO: 89]
> 100 nM | < 1 nM | [Pen]NT[X1]K[Pen][2‑amino‑3‑(4-(2-aminoethoxy)phenyl)propanoic acid][2‑amino‑3‑(6-hydroxynaphthalen-2-yl)propanoic acid][Thp]K(Ac)N[3Pal][Sar] (disulfide 1-6 (inferred); ends not checked; also: Lys5: lipidated lysine, lipid not given here) [SEQ ID NO: 152]
